Consider 167 variants from the RNAGym collection of RNA variant scans (doi:10.1101/gr.219683.116).

The labels stand for the following.
B1: mRNA-splicing (parent)
chain: AGUUGCUGCUGGGAGCUCCAGCACAGUGAAAUGGACAGAAGGGCAGAGCAA

In the data set the parent is B1. Briefly: exon inclusion enrichment index; higher = more inclusion; WT1 exon 5 minigene, HEK293.
In the case of G5U G8U C9U G26U, the “exon inclusion enrichment index” value came to 0.161.
On to G5U G8U C9U G26C, for which the “exon inclusion enrichment index” value is 0.177.
G5U G8U C9U G26A: the “exon inclusion enrichment index” value is 0.201.
The value for G5U G8U C9U A40C was 0.385; that for G5U G8U C9U A40U was 0.0931; that for G5U G8U C9U A40G was 0.0867.
The value for G5U G8U C9U A29U A30U was 0.0146; that for G5U G8U C9U A29U A30G was 0.129; that for G5U G8U C9U A29U A30C was 0.0859.
The value for G5U G8U C9U C16G U17C was 0.0319.
As to G5U G8U C9U C16G U17G, the “exon inclusion enrichment index” value is 0.00571.
The figure for G5U G8U C9U C16G U17A is 0.115.
For G5U G8U C9U G11C, the “exon inclusion enrichment index” value is 0.297.
The figure for G5U G8U C9U G11A is 0.0224.
G5U G8U C9U G11U: the “exon inclusion enrichment index” value was 0.144.
On to G5U G8U C9U A39U, for which the “exon inclusion enrichment index” value came to 0.00188.
The value for G5U G8U C9U A39G was 0.0522; that for G5U G8U C9U A39C was 0.0249.
The figure for G5U G8U C9U C19G A20C is 0.13; for G5U G8U C9U C19G A20U it is 0.14.
The figure for G5U G8U C9U C19G A20G is 0.0362.
On to G5U G8U C9U G38C A39G, for which the “exon inclusion enrichment index” value is 0.136.
As for G5U G8U C9U G38C A39C, the “exon inclusion enrichment index” value was determined as 0.152.
The value for G5U G8U C9U G38C A39U was 0.00329.
The value for G5U G8U C9U G33U G34A was 0.00858.
The figure for G5U G8U C9U G33U G34C is 0.0164; for G5U G8U C9U G33U G34U it is 0.00702.
Consider G5U G8U C9U A30U A31G, for which the “exon inclusion enrichment index” value turned out to be 0.15.
The value for G5U G8U C9U A30U A31C was 0.0725; that for G5U G8U C9U A30U A31U was 0.0523; that for G5U G8U C9U A37G G38U was 0.0298.
The value for G5U G8U C9U A37G G38A was 0.184; that for G5U G8U C9U A37G G38C was 0.241; that for G5U G8U C9U G34C was 0.0201.
The value for G5U G8U C9U G34A was 0.0562.
For G5U G8U C9U G34U, the “exon inclusion enrichment index” value was 0.0349.
The value for G5U G8U C9U A45C G46C was 0.0849.
The figure for G5U G8U C9U A45C G46A is 0.056; for G5U G8U C9U A45C G46U it is 0.0571.
The figure for G5U G8U C9U G15A C16U is 0.0203; for G5U G8U C9U G15A C16A it is 0.0496.
For the variant G5U G8U C9U G15A C16G, the “exon inclusion enrichment index” value is 0.043.
The value for G5U G8U C9U G21U C22U was 0.0182; that for G5U G8U C9U G21U C22G was 0.103.
The figure for G5U G8U C9U G21U C22A is 0.0438.
The value for G5U G8U C9U A45G was 0.366; that for G5U G8U C9U A45U was 0.21.
In the case of G5U G8U C9U A45C, the “exon inclusion enrichment index” value was determined as 0.201.
The figure for G5U G8U C9U A37C G38U is 0.0543; for G5U G8U C9U A37C G38C it is 0.175; for G5U G8U C9U A37C G38A it is 0.157.
The value for G5U G8U C9U G12U G13C was 0.00926.
The value for G5U G8U C9U G12U G13U was 0.000363; that for G5U G8U C9U G12U G13A was 0.000421.
G5U G8U C9U A35C C36U: the “exon inclusion enrichment index” value is 0.0048.
The figure for G5U G8U C9U A35C C36A is 0.0636; for G5U G8U C9U A35C C36G it is 0.125; for G5U G8U C9U G13C A14G it is 0.2.
The value for G5U G8U C9U G13C A14U was 0.1; that for G5U G8U C9U G13C A14C was 0.063.
Turning to G5U G8U C9U C44U A45U, the “exon inclusion enrichment index” value stood at 0.0921.
The figure for G5U G8U C9U C44U A45C is 0.215; for G5U G8U C9U C44U A45G it is 0.043; for G5U G8U C9U A31C it is 0.202.
The figure for G5U G8U C9U A31G is 0.187; for G5U G8U C9U A31U it is 0.15.
The value for G5U G8U C9U G26U U27G was 0.458; that for G5U G8U C9U G26U U27A was 0.0473.
G5U G8U C9U G26U U27C: the “exon inclusion enrichment index” value was found to be 0.729.
On to G5U G8U C9U C24A A25U, for which the “exon inclusion enrichment index” value came to 0.149.
The figure for G5U G8U C9U C24A A25G is 0.175; for G5U G8U C9U C24A A25C it is 0.849.
In the case of G5U G8U C9U A45G G46A, the “exon inclusion enrichment index” value came to 0.672.
The figure for G5U G8U C9U A45G G46U is 0.0933; for G5U G8U C9U A45G G46C it is 0.262.
Turning to G5U G8U C9U G42A, the “exon inclusion enrichment index” value stood at 0.667.
The value for G5U G8U C9U G42C was 0.786; that for G5U G8U C9U G42U was 0.227.
The figure for G5U G8U C9U C19A is 0.0498; for G5U G8U C9U C19G it is 0.0649; for G5U G8U C9U C19U it is 0.00467.
The figure for G5U G8U C9U G15C C16G is 0.179; for G5U G8U C9U G15C C16A it is 0.0947.
Regarding G5U G8U C9U G15C C16U, the “exon inclusion enrichment index” value came to 0.0902.
The figure for G5U G8U C9U A47U G48U is 0.143; for G5U G8U C9U A47U G48A it is 0.0727.
The figure for G5U G8U C9U A47U G48C is 0.0643; for G5U G8U C9U A47U it is 0.115; for G5U G8U C9U A47G it is 0.0159.
The figure for G5U G8U C9U A47C is 0.283; for G5U G8U C9U G34A A35G it is 0.0238; for G5U G8U C9U G34A A35U it is 0.0163.
Take G5U G8U C9U G34A A35C: the “exon inclusion enrichment index” value stood at 0.0912.
Take G5U G8U C9U A29U: the “exon inclusion enrichment index” value was determined as 0.0318.
The value for G5U G8U C9U A29G was 0.246; that for G5U G8U C9U G28A A29C was 0.0709.
The value for G5U G8U C9U G28A A29U was 0.0186; that for G5U G8U C9U G28A A29G was 0.0263; that for G5U G8U C9U A39G A40C was 0.128.
The figure for G5U G8U C9U A39G A40U is 0.00232.
As to G5U G8U C9U A39G A40G, the “exon inclusion enrichment index” value came out at 0.00566.
As for G5U G8U C9U C22U A23G, the “exon inclusion enrichment index” value is 0.109.
The value for G5U G8U C9U C22U A23C was 0.0522; that for G5U G8U C9U C22U A23U was 0.0443; that for G5U G8U C9U A30C A31G was 0.406.
Consider G5U G8U C9U A30C A31U, for which the “exon inclusion enrichment index” value came to 0.139.
The value for G5U G8U C9U A30C A31C was 0.347; that for G5U G8U C9U A31U U32C was 0.282.
As to G5U G8U C9U A31U U32A, the “exon inclusion enrichment index” value is 0.00567.
The figure for G5U G8U C9U A31U U32G is 0.0359; for G5U G8U C9U G33C it is 0.254; for G5U G8U C9U G33U it is 0.0674.
The figure for G5U G8U C9U G33A is 0.00649; for G5U G8U C9U G38C it is 0.0741; for G5U G8U C9U G38A it is 0.0418.
The value for G5U G8U C9U G38U was 0.0205; that for G5U G8U C9U A29G A30U was 0.0242; that for G5U G8U C9U A29G A30C was 0.035.
For the variant G5U G8U C9U A29G A30G, the “exon inclusion enrichment index” value was found to be 0.0374.
The figure for G5U G8U C9U A30C is 0.172; for G5U G8U C9U A30U it is 0.0559.
The value for G5U G8U C9U A30G was 0.109; that for G5U G8U C9U G41A G42C was 0.348; that for G5U G8U C9U G41A G42A was 0.107.
The figure for G5U G8U C9U G41A G42U is 0.115.
Regarding G5U G8U C9U A47G G48C, the “exon inclusion enrichment index” value stood at 0.0267.
The value for G5U G8U C9U A47G G48U was 0.00268; that for G5U G8U C9U A47G G48A was 0.0435; that for G5U G8U C9U G43A C44A was 0.667.
The value for G5U G8U C9U G21C C22A was 0.108; that for G5U G8U C9U G21C C22U was 0.151.
The figure for G5U G8U C9U G21C C22G is 0.384; for G5U G8U C9U C16U U17G it is 0.0101; for G5U G8U C9U C16U U17C it is 0.0384.
Take G5U G8U C9U C16U U17A: the “exon inclusion enrichment index” value was 0.0519.
The figure for G5U G8U C9U C44G A45G is 0.0217; for G5U G8U C9U C44G A45U it is 0.0543; for G5U G8U C9U C44G A45C it is 0.346.
The value for G5U G8U C9U G38A A39C was 0.0724.
The figure for G5U G8U C9U G38A A39G is 0.151.
Regarding G5U G8U C9U G38A A39U, the “exon inclusion enrichment index” value is 0.00274.
The figure for G5U G8U C9U G28U is 0.0111; for G5U G8U C9U G28A it is 0.0119; for G5U G8U C9U G28C it is 0.0778.
In the case of G5U G8U C9U A37C, the “exon inclusion enrichment index” value stood at 0.465.
Turning to G5U G8U C9U A37U, the “exon inclusion enrichment index” value was found to be 0.104.
As for G5U G8U C9U A37G, the “exon inclusion enrichment index” value came out at 0.303.
The value for G5U G8U C9U G12C was 0.0449; that for G5U G8U C9U G12U was 0.0166; that for G5U G8U C9U G12A was 0.0372.
The figure for G5U G8U C9U G26C U27G is 0.648.
For G5U G8U C9U G26C U27A, the “exon inclusion enrichment index” value is 0.135.
As for G5U G8U C9U G26C U27C, the “exon inclusion enrichment index” value was 0.621.
The value for G5U G8U C9U A35U C36G was 0.0125; that for G5U G8U C9U A35U C36U was 0.000565.
The value for G5U G8U C9U A35U C36A was 0.00069; that for G5U G8U C9U A30G A31U was 0.0253.
The value for G5U G8U C9U A30G A31G was 0.0186; that for G5U G8U C9U A30G A31C was 0.00346; that for G5U G8U C9U A39C A40U was 0.141.
For G5U G8U C9U A39C A40C, the “exon inclusion enrichment index” value was found to be 0.321.
The figure for G5U G8U C9U A39C A40G is 0.162; for G5U G8U C9U G12A G13A it is 0.0133.
The value for G5U G8U C9U G12A G13U was 0.000463.
The figure for G5U G8U C9U G12A G13C is 0.0118; for G5U G8U C9U A31C U32C it is 0.544.
As for G5U G8U C9U A31C U32G, the “exon inclusion enrichment index” value stood at 0.188.
